Article PMC3027643

Biological target: mISCU/mNFS1/mISD11 complex (mouse) (UniProt Q9D7P6)
Assay: native MS; ESI native mass spectrometry of the quaternary complexes after gel filtration, 50 mM ammonium acetate; masses of the GST-mFXN and the mFXN-HIS complex compared

Chain of UniProt Q9D7P6 (Q9D7P6 36-168, chain 1 of 3): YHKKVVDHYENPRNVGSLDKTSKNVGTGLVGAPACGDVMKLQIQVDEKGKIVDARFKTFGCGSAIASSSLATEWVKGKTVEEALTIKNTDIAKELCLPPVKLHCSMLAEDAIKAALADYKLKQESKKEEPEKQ
Chain of UniProt Q9D7P6 (Q9Z1J3 18-459, chain 2 of 3, further chain): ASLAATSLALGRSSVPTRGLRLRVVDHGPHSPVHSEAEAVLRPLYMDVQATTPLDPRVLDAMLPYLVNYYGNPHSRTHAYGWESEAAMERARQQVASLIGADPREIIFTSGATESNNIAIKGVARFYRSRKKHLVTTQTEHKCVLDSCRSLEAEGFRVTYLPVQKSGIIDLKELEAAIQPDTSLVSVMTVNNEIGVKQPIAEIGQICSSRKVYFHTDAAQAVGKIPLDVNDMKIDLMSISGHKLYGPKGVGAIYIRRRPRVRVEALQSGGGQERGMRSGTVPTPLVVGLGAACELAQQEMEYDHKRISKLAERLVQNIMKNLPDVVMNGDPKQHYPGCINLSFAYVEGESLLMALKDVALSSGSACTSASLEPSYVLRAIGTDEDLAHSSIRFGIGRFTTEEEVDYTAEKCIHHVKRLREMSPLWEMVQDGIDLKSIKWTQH
Chain of UniProt Q9D7P6 (Q8K215 whole entry, chain 3 of 3, further chain): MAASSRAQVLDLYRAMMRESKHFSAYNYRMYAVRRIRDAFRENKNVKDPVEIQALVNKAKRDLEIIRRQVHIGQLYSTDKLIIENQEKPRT

stoichiometry N: 2
Substance: mFXN-HIS (natural protein)
